Laboratory results from patent publication US20150133524.

Target: PDH E1α subunit (pyruvate dehydrogenase E1 alpha subunit, 41 kDa) (UniProt P35486)
Sequence (P35486 30-390): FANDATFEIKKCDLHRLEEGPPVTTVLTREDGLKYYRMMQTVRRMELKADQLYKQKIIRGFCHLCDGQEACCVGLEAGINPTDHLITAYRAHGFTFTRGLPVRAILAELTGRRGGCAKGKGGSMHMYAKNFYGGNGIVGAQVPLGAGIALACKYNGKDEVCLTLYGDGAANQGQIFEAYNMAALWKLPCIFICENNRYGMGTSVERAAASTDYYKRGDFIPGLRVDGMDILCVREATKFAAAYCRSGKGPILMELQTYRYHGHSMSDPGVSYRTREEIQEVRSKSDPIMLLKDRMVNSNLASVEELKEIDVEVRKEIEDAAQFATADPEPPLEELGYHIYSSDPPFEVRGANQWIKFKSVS

human PDK1 (pyruvate dehydrogenase kinase, isoenzyme 1), sequence (chain, as listed by the source): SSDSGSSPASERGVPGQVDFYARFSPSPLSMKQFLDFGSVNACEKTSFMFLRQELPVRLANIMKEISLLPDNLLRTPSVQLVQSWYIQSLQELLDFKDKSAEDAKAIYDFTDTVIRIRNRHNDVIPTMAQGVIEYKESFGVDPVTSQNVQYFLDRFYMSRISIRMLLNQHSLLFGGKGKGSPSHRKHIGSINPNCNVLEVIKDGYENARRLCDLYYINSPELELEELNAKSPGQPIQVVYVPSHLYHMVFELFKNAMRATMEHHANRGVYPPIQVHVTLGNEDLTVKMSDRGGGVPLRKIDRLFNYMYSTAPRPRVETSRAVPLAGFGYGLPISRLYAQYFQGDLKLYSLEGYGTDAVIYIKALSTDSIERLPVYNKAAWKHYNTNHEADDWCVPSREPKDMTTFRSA

## human PDK1 (pyruvate dehydrogenase kinase, isoenzyme 1)
  PDH E1α subunit phosphorylation (immunoblot after two-dimensional gel electrophoresis of lysates of Hif1a-/- MEFs with forced PDK1 expression against empty vector): This overexpression resulted in increased PDH E1α subunit phosphorylation
